Kd, koff and kon data for three substances are collected here from publication PMC2722380.

This experiment deals with His-tagged p55 fusion protein (recombinant full length human erythrocyte p55), expressed in E. coli (human) (UniProt Q00013). As to the kind of experiment: SPR. A general note: SPR reads the build-up and loss of mass on a sensor chip optically.
Sequence of His-tagged p55 fusion protein (recombinant full length human erythrocyte p55), expressed in E. coli (human) (Q00013 whole entry, the tested form may be a part): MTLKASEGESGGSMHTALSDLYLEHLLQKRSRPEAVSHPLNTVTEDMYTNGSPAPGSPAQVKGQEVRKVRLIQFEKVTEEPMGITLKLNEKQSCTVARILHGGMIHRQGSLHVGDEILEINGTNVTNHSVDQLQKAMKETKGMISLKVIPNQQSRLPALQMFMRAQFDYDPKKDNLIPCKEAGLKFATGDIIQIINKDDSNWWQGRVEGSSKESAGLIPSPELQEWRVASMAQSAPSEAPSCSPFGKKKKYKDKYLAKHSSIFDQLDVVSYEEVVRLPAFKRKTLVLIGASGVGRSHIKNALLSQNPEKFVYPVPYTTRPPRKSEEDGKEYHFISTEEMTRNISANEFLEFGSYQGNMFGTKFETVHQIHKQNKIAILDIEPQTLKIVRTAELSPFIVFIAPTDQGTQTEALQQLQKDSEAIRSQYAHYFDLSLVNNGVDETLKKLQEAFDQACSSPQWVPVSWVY

As usually defined, the Kd is the free concentration of one partner at which half of the binding sites on the other are occupied at equilibrium, for simple one-to-one binding. As usually defined, the koff is a measure of how fast the partners let go of each other. The kon is the rate constant with which the complex forms. Take “MBP-FERMΔExon 5 fusion protein of human protein 4.1R (lacks exon 5, contains exon 10) (domain or fragment)”: the Kd stood at 132 nM, the koff is 0.0029 s⁻¹ and the kon was 22000 M⁻¹ s⁻¹.
“MBP fusion of the exon 5-encoded peptide of protein 4.1R (domain or fragment)”: the Kd is 15 nM, the koff turned out to be 0.0024 s⁻¹ and the kon was 160000 M⁻¹ s⁻¹.
On to “MBP fusion of the exon 10-encoded peptide of protein 4.1R (domain or fragment)”, for which the Kd amounted to 30 nM and the koff amounted to 0.0018 s⁻¹.
